The values that follow come from paper PMC12394722, “Regulatory role of the N-terminal intrinsically disordered region of the DEAD-box RNA helicase DDX3X in selective RNA recognition”.

Usually Kd stands for the free concentration of one partner at which half of the binding sites on the other are occupied at equilibrium, for simple one-to-one binding.

For data set [1], the target named is T1, DDX3X N-IDR (human, UniProt O00571 1-132). The data set is described as follows: EMSA; 125 mM KCl; EMSA: 20 mM K-phosphate pH 7.0, 125 mM KCl, 1 mM DTT, 0.005% Tween-20, 10% glycerol (1 mM ATP-Mg for MBP-FL/Core-C), gel at room temperature; ITC: 20 mM K-phosphate pH 7.0, 50 mM KCl, 25 C; NMR: 200 mM KCl (also 120 mM), 10 C, 50 uM. As to conditions: protein: recombinant, tags: His6-SUMO tag cleaved (Ulp1). (Mobility shift assays separate free from complexed probe on a gel.)
T1 sequence (O00571 1-132): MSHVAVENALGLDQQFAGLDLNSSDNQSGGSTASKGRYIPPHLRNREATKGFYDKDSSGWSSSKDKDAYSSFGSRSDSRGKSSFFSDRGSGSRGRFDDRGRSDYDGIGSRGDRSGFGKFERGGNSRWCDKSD

In data set [2] the target is T1, DDX3X N-IDR. The data set is described as follows: NMR; EMSA: 20 mM K-phosphate pH 7.0, 125 mM KCl, 1 mM DTT, 0.005% Tween-20, 10% glycerol (1 mM ATP-Mg for MBP-FL/Core-C), gel at room temperature; ITC: 20 mM K-phosphate pH 7.0, 50 mM KCl, 25 C; NMR: 200 mM KCl (also 120 mM), 10 C, 50 uM. The note with it: protein: recombinant, tags: His6-SUMO tag cleaved (Ulp1).
The target of data set [3] is T2, MBP-FL DDX3X (human, UniProt O00571 1-662). The data set is described as follows: EMSA; 1 mM ATP-Mg; EMSA: 20 mM K-phosphate pH 7.0, 125 mM KCl, 1 mM DTT, 0.005% Tween-20, 10% glycerol (1 mM ATP-Mg for MBP-FL/Core-C), gel at room temperature; ITC: 20 mM K-phosphate pH 7.0, 50 mM KCl, 25 C; NMR: 200 mM KCl (also 120 mM), 10 C, 50 uM. As to conditions: protein: recombinant, tags: N-terminal His6-MBP, label: 5'-FAM.
T2 sequence (O00571 whole entry): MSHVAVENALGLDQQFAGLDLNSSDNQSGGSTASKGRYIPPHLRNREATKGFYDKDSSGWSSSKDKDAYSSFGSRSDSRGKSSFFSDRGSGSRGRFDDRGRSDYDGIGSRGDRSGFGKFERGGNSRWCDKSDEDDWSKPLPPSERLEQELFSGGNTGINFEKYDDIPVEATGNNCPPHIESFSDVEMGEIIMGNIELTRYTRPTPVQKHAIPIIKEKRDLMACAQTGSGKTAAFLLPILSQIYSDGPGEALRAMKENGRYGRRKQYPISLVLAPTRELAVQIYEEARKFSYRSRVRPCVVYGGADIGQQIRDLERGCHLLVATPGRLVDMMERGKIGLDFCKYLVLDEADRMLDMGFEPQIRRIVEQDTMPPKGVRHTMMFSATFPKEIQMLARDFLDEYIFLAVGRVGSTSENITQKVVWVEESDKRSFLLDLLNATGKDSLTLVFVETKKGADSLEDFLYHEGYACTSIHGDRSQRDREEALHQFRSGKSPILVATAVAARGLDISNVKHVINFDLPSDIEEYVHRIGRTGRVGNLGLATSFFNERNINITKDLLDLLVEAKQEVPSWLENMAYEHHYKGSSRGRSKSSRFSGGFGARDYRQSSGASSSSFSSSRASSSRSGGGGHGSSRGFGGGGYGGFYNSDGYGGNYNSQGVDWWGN

The target in data set [4] is T3, RR-3 fragment (human, UniProt O00571 106-127).
T3 chain: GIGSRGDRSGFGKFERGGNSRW
The data set is described as follows: NMR; little to no change; EMSA: 20 mM K-phosphate pH 7.0, 125 mM KCl, 1 mM DTT, 0.005% Tween-20, 10% glycerol (1 mM ATP-Mg for MBP-FL/Core-C), gel at room temperature; ITC: 20 mM K-phosphate pH 7.0, 50 mM KCl, 25 C; NMR: 200 mM KCl (also 120 mM), 10 C, 50 uM. As to conditions: protein: recombinant, tags: His6-SUMO tag cleaved.

Data set [5] has as its target T4, RR-1 fragment (human, UniProt O00571 31-61). The data set is described as above. The note with it: protein: recombinant, tags: His6-SUMO tag cleaved.
Data set [6] concerns the target T5, RR-2 fragment (human, UniProt O00571 73-102). The description is as above. The note with it: protein: recombinant, tags: His6-SUMO tag cleaved.
Data set [7] addresses T3, RR-3 fragment. The data set is described as follows: NMR; smaller reduction than telomeric GQ; EMSA: 20 mM K-phosphate pH 7.0, 125 mM KCl, 1 mM DTT, 0.005% Tween-20, 10% glycerol (1 mM ATP-Mg for MBP-FL/Core-C), gel at room temperature; ITC: 20 mM K-phosphate pH 7.0, 50 mM KCl, 25 C; NMR: 200 mM KCl (also 120 mM), 10 C, 50 uM. As to conditions: protein: recombinant; tags: His6-SUMO tag cleaved; G4 monomer.

Data set [8] has as its target T4, RR-1 fragment. The data set is described as follows: NMR; EMSA: 20 mM K-phosphate pH 7.0, 125 mM KCl, 1 mM DTT, 0.005% Tween-20, 10% glycerol (1 mM ATP-Mg for MBP-FL/Core-C), gel at room temperature; ITC: 20 mM K-phosphate pH 7.0, 50 mM KCl, 25 C; NMR: 200 mM KCl (also 120 mM), 10 C, 50 uM. As to conditions: protein: recombinant, tags: His6-SUMO tag cleaved.
The target in data set [9] is T5, RR-2 fragment. The data set is described as above. The note with it: protein: recombinant, tags: His6-SUMO tag cleaved.
In data set [10] the target is T1, DDX3X N-IDR. The data set is described as follows: ITC; 50 mM KCl; EMSA: 20 mM K-phosphate pH 7.0, 125 mM KCl, 1 mM DTT, 0.005% Tween-20, 10% glycerol (1 mM ATP-Mg for MBP-FL/Core-C), gel at room temperature; ITC: 20 mM K-phosphate pH 7.0, 50 mM KCl, 25 C; NMR: 200 mM KCl (also 120 mM), 10 C, 50 uM. The note with it: protein: recombinant; tags: His6-SUMO tag cleaved (Ulp1); G4 monomer.

Data set [11] addresses T1, DDX3X N-IDR. The data set is described as follows: ITC; 50 mM KCl; dimer concentration; EMSA: 20 mM K-phosphate pH 7.0, 125 mM KCl, 1 mM DTT, 0.005% Tween-20, 10% glycerol (1 mM ATP-Mg for MBP-FL/Core-C), gel at room temperature; ITC: 20 mM K-phosphate pH 7.0, 50 mM KCl, 25 C; NMR: 200 mM KCl (also 120 mM), 10 C, 50 uM. The note with it: protein: recombinant; tags: His6-SUMO tag cleaved (Ulp1); parallel G4, dimer of 2 strands.

Data set [12] deals with T3, RR-3 fragment. The data set is described as follows: NMR; EMSA: 20 mM K-phosphate pH 7.0, 125 mM KCl, 1 mM DTT, 0.005% Tween-20, 10% glycerol (1 mM ATP-Mg for MBP-FL/Core-C), gel at room temperature; ITC: 20 mM K-phosphate pH 7.0, 50 mM KCl, 25 C; NMR: 200 mM KCl (also 120 mM), 10 C, 50 uM. The note with it: protein: recombinant; tags: His6-SUMO tag cleaved; parallel G4, dimer of 2 strands.

Data set [13] addresses T2, MBP-FL DDX3X. The data set is described as follows: EMSA; little to no shift; 1 mM ATP-Mg; EMSA: 20 mM K-phosphate pH 7.0, 125 mM KCl, 1 mM DTT, 0.005% Tween-20, 10% glycerol (1 mM ATP-Mg for MBP-FL/Core-C), gel at room temperature; ITC: 20 mM K-phosphate pH 7.0, 50 mM KCl, 25 C; NMR: 200 mM KCl (also 120 mM), 10 C, 50 uM. The note with it: protein: recombinant, tags: N-terminal His6-MBP.

A further data set deals with MBP-Core-C DDX3X (human, UniProt O00571 132-662). The data set is described as follows: EMSA; 1 mM ATP-Mg; EMSA: 20 mM K-phosphate pH 7.0, 125 mM KCl, 1 mM DTT, 0.005% Tween-20, 10% glycerol (1 mM ATP-Mg for MBP-FL/Core-C), gel at room temperature; ITC: 20 mM K-phosphate pH 7.0, 50 mM KCl, 25 C; NMR: 200 mM KCl (also 120 mM), 10 C, 50 uM. The note with it: protein: recombinant, tags: N-terminal His6-MBP, label: 5'-FAM.
Sequence of MBP-Core-C DDX3X (O00571 132-662): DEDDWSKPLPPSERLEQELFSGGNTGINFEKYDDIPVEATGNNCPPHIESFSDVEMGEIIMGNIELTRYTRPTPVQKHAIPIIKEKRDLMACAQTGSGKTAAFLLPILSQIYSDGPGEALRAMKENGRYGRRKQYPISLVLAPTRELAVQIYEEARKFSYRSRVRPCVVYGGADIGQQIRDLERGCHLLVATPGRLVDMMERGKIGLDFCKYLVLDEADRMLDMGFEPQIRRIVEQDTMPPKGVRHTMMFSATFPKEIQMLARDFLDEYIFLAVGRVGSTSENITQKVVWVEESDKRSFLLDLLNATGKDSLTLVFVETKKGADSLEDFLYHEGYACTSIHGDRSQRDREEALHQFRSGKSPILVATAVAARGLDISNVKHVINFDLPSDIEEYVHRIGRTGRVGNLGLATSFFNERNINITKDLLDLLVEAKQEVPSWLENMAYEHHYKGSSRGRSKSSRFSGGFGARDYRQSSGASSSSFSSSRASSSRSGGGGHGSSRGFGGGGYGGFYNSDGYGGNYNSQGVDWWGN

Data set [14] has as its target T1, DDX3X N-IDR. The data set is described as follows: EMSA; little to no shift; 125 mM KCl; EMSA: 20 mM K-phosphate pH 7.0, 125 mM KCl, 1 mM DTT, 0.005% Tween-20, 10% glycerol (1 mM ATP-Mg for MBP-FL/Core-C), gel at room temperature; ITC: 20 mM K-phosphate pH 7.0, 50 mM KCl, 25 C; NMR: 200 mM KCl (also 120 mM), 10 C, 50 uM. As to conditions: protein: recombinant; tags: His6-SUMO tag cleaved (Ulp1); label: 3'-FAM.

Setting [15] is: parallel G4, dimer of 2 strands.

T4 sequence (O00571 31-61): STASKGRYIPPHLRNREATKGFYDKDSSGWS
T5 sequence (O00571 73-102): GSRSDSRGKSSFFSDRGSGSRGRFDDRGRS

Take GCGGAGGGCGAGGCGGCGUGGACAG (structured_RNA) [RAC1 53-77]: the Kd with DDX3X N-IDR [1] (label: 5'-FAM in EMSA, G4) turned out to be 510 ± 80 nM.
As to GAAAGUAGAGGGAGGGAUAGUCUAC (structured_RNA) [MITF 62-86], the binding result with DDX3X N-IDR [2] (G4) was “binds”.
Regarding UGUAGAAAGAGCAGAUCUAGAUGC (ssRNA) [FAM-NRAS mutant RNA], the Kd in the data set with DDX3X N-IDR [1] (label: 5'-FAM, GQ abolished) is 6000 ± 800 nM; with MBP-FL DDX3X [3] (GQ abolished), 222 ± 9 nM.

B1: GC-14mer dsRNA (NMR) (dsRNA)
RNA 1: GGGCGGGCCCGCCC
RNA 2: GGGCGGGCCCGCCC
B1: the binding result was “no binding” with RR-3 fragment [4] (blunt, self-complementary); “no binding” in the data set with RR-1 fragment [5] (blunt, self-complementary); “no binding” in the data set with RR-2 fragment [6] (blunt, self-complementary).
As to AUACCUUGUUUAUAGUACCUUCUCU (ssRNA) [MITF 7-31], in the data set with DDX3X N-IDR [2] (non-GQ), the binding result is “no binding”.
In the case of UGUGGGAGGGGCGGGUCUGGGUGC (structured_RNA) [NRAS GQ RNA], the binding result with RR-3 fragment [7], with RR-1 fragment [8] (G4 monomer) and with RR-2 fragment [9] (G4 monomer) was “binds” in each case. The Kd in the data set with DDX3X N-IDR [10] is 1400 nM.
Turning to UGUAGAAAGAGCAGAUCUAGAUGC (ssRNA) [NRAS mutant RNA], the binding result with RR-3 fragment [4] (GQ abolished), with RR-1 fragment [5] (GQ abolished) and with RR-2 fragment [6] (GQ abolished) was “no binding” in each case.
Consider UAGGGUUAGGGU (structured_RNA) [telomeric GQ RNA], for which, in the data set with DDX3X N-IDR [11], the Kd stood at 3400 nM. In addition, the binding result in the data set with RR-3 fragment [12], with RR-1 fragment [8] (setting [15]) and with RR-2 fragment [9] (setting [15]) was “binds” in each case.
As for GGCACUUCGGUGCC (structured_RNA) [FAM-14mer tetraloop], the binding result with MBP-FL DDX3X [13] (label: 5'-FAM, hairpin) was “no binding”.
Regarding UAGGGUUAGGGU (structured_RNA) [FAM-telomeric GQ RNA], the equilibrium dissociation constant (Kd) was found to be 1000 ± 200 nM with DDX3X N-IDR [1] (label: 5'-FAM, parallel G4, dimer of 2 strands); 579 ± 69 nM in the data set with MBP-Core-C DDX3X (setting [15]); 54 ± 14 nM in the data set with MBP-FL DDX3X [3] (setting [15]).
On to AGUAGGGAGCGGCGUGCCGUGGGGC (structured_RNA) [ODC1 150-174], for which, in the data set with DDX3X N-IDR [1] (label: 5'-FAM in EMSA, G4, heterogeneous), the Kd came to 1970 ± 230 nM.
In the case of UUUUUUUUUU (ssRNA) [poly-U10], the binding result with RR-3 fragment [4], with RR-1 fragment [5] and in the data set with RR-2 fragment [6] was “no binding” each time.
For the molecule UGUGGGAGGGGCGGGUCUGGGUGC (structured_RNA) [FAM-NRAS GQ RNA], the Kd with DDX3X N-IDR [1] (label: 5'-FAM, G4 monomer) came out at 54 ± 12 nM; with MBP-Core-C DDX3X (G4 monomer), 201 ± 5 nM; with MBP-FL DDX3X [3] (G4 monomer), 43 ± 4 nM.
With UUUUUUUUUUUU (ssRNA) [poly-U12], the binding result with MBP-FL DDX3X [13] (label: 3'-FAM) and with DDX3X N-IDR [14] was “no binding” each time.
